# From IntAct's records for PubMed 37595036
# B1: CDK5 regulatory subunit-associated protein 3 (Homo sapiens), Q96JB5 (parent)
# chain: MEDHQHVPIDIQTSKLLDWLVDRRHCSLKWQSLVLTIREKINAAIQDMPESEEIAQLLSGSYIHYFHCLRILDLLKGTEASTKNIFGRYSSQRMKDWQEIIALYEKDNTYLVELSSLLVRNVNYEIPSLKKQIAKCQQLQQEYSRKEEECQAGAAEMREQFYHSCKQYGITGENVRGELLALVKDLPSQLAEIGAAAQQSLGEAIDVYQASVGFVCESPTEQVLPMLRFVQKRGNSTVYEWRTGTEPSVVERPHLEELPEQVAEDAIDWGDFGVEAVSEGTDSGISAEAAGIDWGIFPESDSKDPGGDGIDWGDDAVALQITVLEAGTQAPEGVARGPDALTLLEYTETRNQFLDELMELEIFLAQRAVELSEEADVLSVSQFQLAPAILQGQTKEKMVTMVSVLEDLIGKLTSLQLQHLFMILASPRYVDRVTEFLQQKLKQSQLLALKKELMVQKQQEALEEQAALEPKLDLLLEKTKELQKLIEADISKRYSGRPVNLMGTSL
# Variants of: B1
# Settings: with ufc1_human UFC1, Q9Y3C8
# Sequence of ufc1_human UFC1, Q9Y3C8 (Q9Y3C8 whole entry): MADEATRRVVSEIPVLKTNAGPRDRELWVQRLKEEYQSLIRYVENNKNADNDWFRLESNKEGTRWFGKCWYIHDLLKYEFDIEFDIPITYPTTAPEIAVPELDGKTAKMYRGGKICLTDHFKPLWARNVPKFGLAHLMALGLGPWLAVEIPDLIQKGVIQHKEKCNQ
row,Variant,effect of a mutation on the interaction
1,MEDHQHVPIDIQTSKLLDWLVDRRHCSLKWQSLVLTIREKINAAIQDMPESEEIAQLLSGSYIHYFHCLRILDLLKGTEASTKNIFGRYSSQRMKDWQEIIALYEKDNTYLVELSSLLVRNVNYEIPSLKKQIAKCQQLQQEYSRKEEECQAGAAEMREQFYHSCKQYGITGENVRGELLALVKDLPSQLAEIGAAAQQSLGEAIDVYQASVGFVCESPTEQVLPMLRFVQKRGNSTVYEWRTGTEPSVVERPHLEELPEQVAEDAADAGDFGVEAVSEGTDSGISAEAAGIDWGIFPESDSKDPGGDGIDWGDDAVALQITVLEAGTQAPEGVARGPDALTLLEYTETRNQFLDELMELEIFLAQRAVELSEEADVLSVSQFQLAPAILQGQTKEKMVTMVSVLEDLIGKLTSLQLQHLFMILASPRYVDRVTEFLQQKLKQSQLLALKKELMVQKQQEALEEQAALEPKLDLLLEKTKELQKLIEADISKRYSGRPVNLMGTSL [I267A;W269A],decreasing interaction strength
